# Changes are numbered by the printed parent chain.
# T1: ProQ NTD (FinO domain) (Escherichia coli, UniProt P45577 1-130)
# T1 sequence: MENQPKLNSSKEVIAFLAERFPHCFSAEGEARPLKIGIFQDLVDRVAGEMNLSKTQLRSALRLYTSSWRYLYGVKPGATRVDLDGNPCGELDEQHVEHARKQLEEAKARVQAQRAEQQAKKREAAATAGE
# T2: ProQ full-length (Escherichia coli, UniProt P45577 1-232)
# T2 sequence: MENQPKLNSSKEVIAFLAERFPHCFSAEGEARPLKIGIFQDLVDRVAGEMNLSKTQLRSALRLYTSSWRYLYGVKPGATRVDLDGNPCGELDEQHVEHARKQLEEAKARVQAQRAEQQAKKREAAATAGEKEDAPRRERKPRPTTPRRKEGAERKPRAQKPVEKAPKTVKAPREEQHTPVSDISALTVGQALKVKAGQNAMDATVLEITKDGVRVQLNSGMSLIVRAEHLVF
# B1: hupA-5'-mut (structured_RNA)
# RNA: GCGAAAAAAAGUGGCUAUCGGUGCGUGUAUGCAGGAGAGUGCUAUUCUGGCAUUUCCGUCGCACUCGAUGCUUAGCAAGCGAUAAACACAUCGUAAGGAUAACUUACGUUUU
# B2: malM-3'-bulge (structured_RNA)
# RNA: GCUUUAUCAGCAGUGUAAAAGGCAAGGGGUAAUUACGCCCCACAGUGCUGAUUUUGCAACAACUGGUGAAACGUCUCCUGGCGCACCUUUUUUU
# B3: malM-3'-AA (structured_RNA)
# RNA: GCUUUAUCAGCAGUGUAAAAGGCAAGGGGUAAUUACGCCCCACAGUGCUGAUUUUGCAACAACUGGUAAGUCUCCUGGCAAACCUUUUUUU
# B4: malM-3'-UU (structured_RNA)
# RNA: B3 RNA with A68U, A69U, A80U, A81U
# B5: cspE-3' (structured_RNA)
# RNA: GUAAGAUACGUCAGCAAGAAUUCAAAACCCGCUUAAUCAGCGGGUUUUUUUU
# B6: malM-3'-6U (structured_RNA)
# RNA: GCUUUAUCAGCAGUGUAAAAGGCAAGGGGUAAUUACGCCCCACAGUGCUGAUUUUGCAACAACUGGUGCGUCUCCUGGCGCACCUUUUUU
# B7: malM-3'-5U (structured_RNA)
# RNA: GCUUUAUCAGCAGUGUAAAAGGCAAGGGGUAAUUACGCCCCACAGUGCUGAUUUUGCAACAACUGGUGCGUCUCCUGGCGCACCUUUUU
# B8: malM-3'-4U (structured_RNA)
# RNA: GCUUUAUCAGCAGUGUAAAAGGCAAGGGGUAAUUACGCCCCACAGUGCUGAUUUUGCAACAACUGGUGCGUCUCCUGGCGCACCUUUU
# B9: malM-3'-AtoU (structured_RNA)
# RNA: B3 RNA with A58U, A59U, A61U, A62U, A68G, A69C, A80G, A81C
# B10: malM-3' (structured_RNA)
# RNA: B3 RNA with A68G, A69C, A80G, A81C
# B11: cspE-3'-AtoU (structured_RNA)
# RNA: B5 RNA with A24U, A25U, A26U, A27U
# B12: cspE81-3' (structured_RNA)
# RNA: GGCCCUUCUGCUGCAAACGUAAUCGCUCUGUAAGAUACGUCAGCAAGAAUUCAAAACCCGCUUAAUCAGCGGGUUUUUUUU
# B13: cspE81-3'-AtoU (structured_RNA)
# RNA: B12 RNA with A53U, A54U, A55U, A56U
# B14: hupB-3'-RtoU (structured_RNA)
# RNA: GGUAAACUAAGCGUUGUCCCCAGUGGGGAUGUGACGAAGUUCUUUGGCGCAUCUACUGAUGUGCCUUUUUU
# B15: infA-3'-AtoU (structured_RNA)
# RNA: GUCGCUGAUUGUUUUACCGCCUGAUGGGCGAAGAGAAAGAACGAGUUUUUGGUCGGUUUAACCGGCCUUUUUAU
# B16: gapA-3'-AtoU (structured_RNA)
# RNA: GGACCUGAUCGCUCACAUCUCCAAAUAAGUUGAGAUGACACUGUGAUCUUUUUUGAGCGACUUCGGUCGCUCUUUUUUUU
# B17: lpp-5'-mut (structured_RNA)
# RNA: GCUACAUGGAGAUUAACUCAAUCUAGAGGGUAUUAAUAAUGAAAGCUACUAAACUGGUACUGGGCGCGGUAAUCCCGCGCCCUUUU
# Target: T1, ProQ NTD (FinO domain)
# Test: EMSA
row,Binder,Kd
1,B1,16 ± 4.7 nM
2,B2,9 ± 2.5 nM
3,B3,6.6 ± 1.4 nM
4,B4,8.7 ± 2.1 nM
5,B5,4.5 ± 1.5 nM
6,B6,7.8 ± 1.2 nM
7,B7,9.7 ± 1.5 nM
8,B8,27 ± 11 nM
9,B9,5 ± 1.8 nM
10,B10,12 ± 4.8 nM
11,B11,100 ± 51 nM
12,B12,7.6 ± 4.5 nM
13,B13,17 ± 4.6 nM
14,B14,29 ± 7.2 nM
15,B15,32 ± 13 nM
16,B16,18 nM

# Target: T2, ProQ full-length
# Test: EMSA
row,Binder,Kd
1,B17,3 ± 1.3 nM
2,B1,14 ± 8 nM
3,B5,13 ± 4.5 nM
4,B10,12 ± 5.3 nM

# Target: Hfq (Escherichia coli, UniProt P0A6X3 1-102)
# Sequence (P0A6X3 whole entry): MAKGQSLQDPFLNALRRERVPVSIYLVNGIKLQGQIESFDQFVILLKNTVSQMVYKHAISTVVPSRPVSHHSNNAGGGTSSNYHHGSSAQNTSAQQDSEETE
# Test: filter binding
row,Binder,Kd
1,B10,22 ± 7 nM
2,B11,1.7 ± 0.88 nM
3,B12,47 ± 11 nM
4,B14,1.9 ± 0.75 nM
5,B15,1.2 ± 0.55 nM

# From paper PMC7367173
